Results published in publication doi:10.1101/2025.08.05.668721 (bioRxiv, 2025).

Experiments:
[1] = target: T1, FGL-1 Fibrinogen-like domain (FD), monomer, C-terminal Avi-tag, biotinylated (human), Q08830; experiment: BLI
T1 chain: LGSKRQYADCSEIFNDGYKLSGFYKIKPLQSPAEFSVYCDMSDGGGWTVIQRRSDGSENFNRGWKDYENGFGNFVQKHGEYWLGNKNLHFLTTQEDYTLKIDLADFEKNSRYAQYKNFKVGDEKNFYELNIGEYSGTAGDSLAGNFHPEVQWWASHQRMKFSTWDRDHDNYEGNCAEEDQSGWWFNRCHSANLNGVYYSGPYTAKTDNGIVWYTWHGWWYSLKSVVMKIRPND

[2] = target: T2, FGL-1 Fibrinogen-like domain (FD), dimer, C-terminal Avi-tag, biotinylated (human), Q08830; experiment: BLI
T2 chain: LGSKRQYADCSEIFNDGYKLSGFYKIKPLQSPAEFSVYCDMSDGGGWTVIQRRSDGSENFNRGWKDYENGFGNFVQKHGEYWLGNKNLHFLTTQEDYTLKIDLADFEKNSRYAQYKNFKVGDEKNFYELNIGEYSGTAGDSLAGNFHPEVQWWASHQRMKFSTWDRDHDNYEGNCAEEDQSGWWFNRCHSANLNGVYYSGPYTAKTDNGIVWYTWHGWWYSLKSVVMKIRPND

SEC = target: the molecule itself; experiment: SEC
crystal structure = target: the molecule itself; experiment: crystal structure

B1: LAG-3 (soluble analyte in BLI), P18627 23-450 (receptor)
chain: LQPGAEVPVVWAQEGAPAQLPCSPTIPLQDLSLLRRAGVTWQHQPDSGPPAAAPGHPLAPGPHPAAPSSWGPRPRRYTVLSVGPGGLRSGRLPLQPRVQLDERGRQRGDFSLWLRPARRADAGEYRAAVHLRDRALSCRLRLRLGQASMTASPPGSLRASDWVILNCSFSRPDRPASVHWFRNRGQGRVPVRESPHHHLAESFLFLPQVSPMDSGPWGCILTYRDGFNVSIMYNLTVLGLEPPTPLTVYAGAGSRVGLPCRLPAGVGTRSFLTAKWTPPGGGPDLLVTGDNGDFTLRLEDVSQAQAGTYTCHIHLQEQQLNATVTLAIITVTPKSFGSPGSLGKLLCEVTPVSGQERFVWSSLDTPSQRSFSGPWLEAQEAQLLSQPWQCQLYQGERLLGAAVYFTELSSPGAQRSGRAPGALPAGHL
modifications: not checked
Kd [1]: 740 nM | Kd [2]: 16.8 nM

B2: FGL-1 Fibrinogen-like domain (FD), dimer, C-terminal Avi-tag, biotinylated (domain or fragment, human, UniProt Q08830 74-306, looked up)
chain: LGSKRQYADCSEIFNDGYKLSGFYKIKPLQSPAEFSVYCDMSDGGGWTVIQRRSDGSENFNRGWKDYENGFGNFVQKHGEYWLGNKNLHFLTTQEDYTLKIDLADFEKNSRYAQYKNFKVGDEKNFYELNIGEYSGTAGDSLAGNFHPEVQWWASHQRMKFSTWDRDHDNYEGNCAEEDQSGWWFNRCHSANLNGVYYSGPYTAKTDNGIVWYTWHGWWYSLKSVVMKIRPND
modifications: biotin on the Avi-tag (BirA)
stoichiometry N (SEC): 2

B3: FGL-1 FD dimer (without Avi-tag) (domain or fragment, human, UniProt Q08830 74-306, looked up)
chain: LGSKRQYADCSEIFNDGYKLSGFYKIKPLQSPAEFSVYCDMSDGGGWTVIQRRSDGSENFNRGWKDYENGFGNFVQKHGEYWLGNKNLHFLTTQEDYTLKIDLADFEKNSRYAQYKNFKVGDEKNFYELNIGEYSGTAGDSLAGNFHPEVQWWASHQRMKFSTWDRDHDNYEGNCAEEDQSGWWFNRCHSANLNGVYYSGPYTAKTDNGIVWYTWHGWWYSLKSVVMKIRPND
binding result (crystal structure): binds
